These results are taken from patent US20190359687A1 (Bayer, published 2019).

The EC50 is the midpoint of the concentration-response curve.

Residue numbers refer to the chain shown, from its start.

First the molecules themselves.
T1: human glycophorin A in the red blood cell membrane (human, UniProt P02724 20-150)
T1 construct: whole, on cells; used for intact RBC, isolated RBC membranes and transfected cells; the assay field tells which; also called GPA; hGPA
T1 sequence (looked up): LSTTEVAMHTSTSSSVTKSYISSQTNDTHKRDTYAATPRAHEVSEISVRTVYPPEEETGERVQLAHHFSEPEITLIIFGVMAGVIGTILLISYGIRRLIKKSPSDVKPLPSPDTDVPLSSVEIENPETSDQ

T2: Rhesus monkey glycophorin A on Rhesus monkey red blood cells (Rhesus monkey, UniProt A0A1D5Q349 20-150)
T2 construct: whole, on cells; also called Rhesus RBC; monkey GPA
T2 sequence: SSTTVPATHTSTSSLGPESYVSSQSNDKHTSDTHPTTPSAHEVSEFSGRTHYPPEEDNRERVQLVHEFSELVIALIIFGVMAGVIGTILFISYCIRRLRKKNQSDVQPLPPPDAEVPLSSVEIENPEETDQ

T3: purified human glycophorin A protein (Sigma, cat # G5017) (human, UniProt P02724 20-150)
T3 construct: mature; also called Sigma hGPA; Sigma GPA
T3 sequence (looked up): T1 sequence (looked up)

B1: 6C12 scFv-Fc (Fc fusion)
scFv: RVQLQQSGAELARPGASVKMSCKASGYTFTTYTIHWVKQKTGQGLEWIGYINPSSDYTRYNPKFKDKATLTTDKSSSTAYMKLNSLASDDSAVYYCQTGTRDYWGQGTTLTVSSGGGGSGGGGSGGGGSQIVLTQSPPIMSASPGEKVTMTCSAASSVSYIYWFQQKPGTSPKLWIYSTSTLPSGVPTRFSGSGSGTSYSLTISRMEAEDAATYYCHQRNSFPFTFGSGTKLEIRGGGGAGGGGCKPCICTVPEVSSVFIFPPKPKDVLTITLTPKVTCVVVDISKDDPEVQFSWFVDDVEVHTAQTQPREEQFNSTFRSVSELPIMHQDWLNGKEFKCRVNSAAFPAPIEKTISKTKGRPKAPQVYTIPPPKEQMAKDKVSLTCMITDFFPEDITVEWQWNGQPAENYKNTQPIMDTDGSYFVYSKLNVQKSNWEAGNTFTCSVLHEGLHNHHTEKSLSHSPGK
notes: scFv fused to a mouse Fc fragment; printed order VH-linker-VL-Fc
B2: 12C6 scFv-Fc (Fc fusion)
scFv: QVQLQQSGAELARPGASVKMSCKASGYTFTRYSMHWVKQRPGQGLEWIGYINPGTYSTNYNQKFKDRATLTADKSSSTAYMQLNSLTSEDSAVYYCQTGTRDYWGQGTTLTVSSGGGGSGGGGSGGGGSQIVLTQSPPIMSASPGEKVTITCSAASSVSYIYWFQQKPGTSPKLWIYSTSSLPSGVPTRFSGSGSGTSYSLTISRMEAEDAATYYCHQRSSYPFTFGSGTKLEIRGGGGAGGGGCKPCICTVPEVSSVFIFPPKPKDVLTITLTPKVTCVVVDISKDDPEVQFSWFVDDVEVHTAQTQPREEQFNSTFRSVSELPIMHQDWLNGKEFKCRVNSAAFPAPIEKTISKTKGRPKAPQVYTIPPPKEQMAKDKVSLTCMITDFFPEDITVEWQWNGQPAENYKNTQPIMDTDGSYFVYSKLNVQKSNWEAGNTFTCSVLHEGLHNHHTEKSLSHSPGK
notes: as m18
B3: 10F1 scFv-Fc (Fc fusion)
scFv: B2 scFv with Q5L, K19R, M20I, S33A, Y56F
notes: as m18
B4: 1E4 scFv-Fc (Fc fusion)
scFv: B2 scFv with S57Y
notes: as m18
B5: 8F9 scFv-Fc (Fc fusion)
scFv: QVQLQQSGAELARPGASVKMSCKASGYTFTSYSIHWIKQRPGQSLEWIGYINPNSDYANYNQKFKDKATLTTDKSSTTAYMQLSSLTTDDSAVYYCQTGTRDYWGQGTTLTVSSGGGGSGGGGSGGGGSHIVLTQSPAIMSASPGEKVTIICSARSSVSYMYWFQQKPGTSPKLWIYATSSLPSGVPARFSGSGSGTSYSLTISRMEAEDAATYYCHQRSSYPYTFGSGTKLEIKGGGGAGGGGCKPCICTVPEVSSVFIFPPKPKDVLTITLTPKVTCVVVDISKDDPEVQFSWFVDDVEVHTAQTQPREEQFNSTFRSVSELPIMHQDWLNGKEFKCRVNSAAFPAPIEKTISKTKGRPKAPQVYTIPPPKEQMAKDKVSLTCMITDFFPEDITVEWQWNGQPAENYKNTQPIMDTDGSYFVYSKLNVQKSNWEAGNTFTCSVLHEGLHNHHTEKSLSHSPGK
notes: as m18
B6: 13G7 scFv-Fc (Fc fusion)
scFv: RVQLQQSGAELARPGASVKMSCKASGYTFTNYAMHWVKQRPGQGLEWIGYINPKSDNTNYNQKFKDKATLTTDKSSATAYMQLSSLTSDDSAVYYCQTGTRDYWGQGTTLTVSSGGGGSGGGGSGGGGSHIVLTQSPAIMSASPGEKVTIFCSASSSITYVYWFQQKPGTSPKLWIYSTSSLPSGVPARFSGSGSGTSYSLTISRMEAEDAATYYCHQRNSYPFTFGSGTKLEIKGGGGAGGGGCKPCICTVPEVSSVFIFPPKPKDVLTITLTPKVTCVVVDISKDDPEVQFSWFVDDVEVHTAQTQPREEQFNSTFRSVSELPIMHQDWLNGKEFKCRVNSAAFPAPIEKTISKTKGRPKAPQVYTIPPPKEQMAKDKVSLTCMITDFFPEDITVEWQWNGQPAENYKNTQPIMDTDGSYFVYSKLNVQKSNWEAGNTFTCSVLHEGLHNHHTEKSLSHSPGK
notes: as m18
B7: 12C6A6/A5 (antibody, V domains shown)
VH: QVQLQQSGAELARPGASVKMSCKASGYTFTRYSMHWVKQRPGQGLEWIGYINPGTYSTNYNQKFKDRATLTADKSSSTAYMQLNSLTSEDSAVYYCQTGTRDYWGQGTTLTVSS
VL: QIVLTQSPPIMSASPGEKVTITCSAASSVSYIYWFQQKPGTSPKLWIYSTSSLPSGVPTRFSGSGSGTSYSLTISRMEAEDAATYYCHQRSSYPFTFGSGTKLEIR
notes: as m8
B8: 8F9E9/F11 (antibody, V domains shown)
VH: QVQLQQSGAELARPGASVKMSCKASGYTFTSYSIHWIKQRPGQSLEWIGYINPNSDYANYNQKFKDKATLTTDKSSTTAYMQLSSLTTDDSAVYYCQTGTRDYWGQGTTLTVSS
VL: B7 VL with Q1H, P9A, T22I, A26R, I32M, S49A, T59A, F95Y, R106K
notes: as m8
B9: 1E4A2/F8 (antibody, V domains shown)
VH: B7 VH with S57Y
VL: B7 VL
notes: as m8
B10: 10F1B10/F3 (antibody, V domains shown)
VH: B7 VH with Q5L, K19R, M20I, S33A, Y56F
VL: B7 VL
notes: as m8

One assay addresses T4, Cynomolgus monkey glycophorin A on Cynomolgus monkey red blood cells (Cynomolgus monkey).
T4 construct: whole, on cells; also called Cyno RBC; Cyno GPA
Put plainly: FACS, Cyno #1 RBC. A general note: Flow cytometry measures light scatter and fluorescence of single cells or particles in a stream.
The molecule B1 came in with an FACS signal of 2 Flourescent units.

Regarding B2, the FACS signal was found to be 2 Flourescent units.

In the case of B3, the FACS signal was found to be 2 Flourescent units.

As to B4, the FACS signal turned out to be 1 Flourescent units.

In turn, B5 had an FACS signal of 2 Flourescent units.

B6 came in with an FACS signal of 2 Flourescent units.

The target in a further assay is T4, Cynomolgus monkey glycophorin A on …. Description: FACS, Cyno #3 RBC.
Regarding B1, the FACS signal was 602 Flourescent units.

In the case of B2, the FACS signal came out at 580 Flourescent units.

Molecule B3 returned an FACS signal of 647 Flourescent units.

In the case of B4, the FACS signal turned out to be 487 Flourescent units.

Consider B5, for which the FACS signal was determined as 582 Flourescent units.

As to B6, the FACS signal stood at 632 Flourescent units.

The next assay shares this target. Put plainly: FACS, Cyno RBC.
Take B7: the FACS signal is 7 relative flourescence units.

Turning to B8, the FACS signal was 284 relative flourescence units.

With B9, the FACS signal is 272 relative flourescence units.

Turning to B10, the FACS signal was 280 relative flourescence units.

The target of a further assay is T1, human glycophorin A in the red blood …. Put plainly: FACS, hu RBC.
Regarding B7, the FACS signal was 2840 relative flourescence units.

In the case of B8, the FACS signal was 2860 relative flourescence units.

With B9, the FACS signal is 2560 relative flourescence units.

In the case of B10, the FACS signal is 2860 relative flourescence units.

Another assay deals with T2, Rhesus monkey glycophorin A on Rhesus …. Put plainly: FACS, Rhesus RBC.
For B1, the FACS signal is 1450 Flourescent units.

Consider B2, for which the FACS signal turned out to be 1860 Flourescent units.

As to B3, the FACS signal worked out at 2070 Flourescent units.

B5 showed an FACS signal of 1770 Flourescent units.

The molecule B6 gave an FACS signal of 1860 Flourescent units.

The target in a further assay is T3, purified human glycophorin A protein …. Description: ELISA, hGPA.
In the case of B7, the EC50 stood at 0.266 nM.

In turn, B8 registered an EC50 of 0.159 nM.

On to B9, for which the EC50 is 0.221 nM.

Take B10: the response was half-maximal at 0.192 nM (EC50).

Another assay deals with T1, human glycophorin A in the red blood …. Description: FACS, Human RBC.
Turning to B1, the FACS signal stood at 2040 Flourescent units.

Consider B2, for which the FACS signal was 2900 Flourescent units.

With B3, the FACS signal was 2980 Flourescent units.

Turning to B4, the FACS signal is 1720 Flourescent units.

B5: the FACS signal was found to be 2340 Flourescent units.

B6: the FACS signal is 2760 Flourescent units.

The target in a further assay is T5, dog red blood cells (dog).
T5 construct: also called dog RBC
Description: FACS, Dog RBC.
On to B1, for which the FACS signal was found to be 1 Flourescent units.

Turning to B2, the FACS signal worked out at 1 Flourescent units.

B3 gave an FACS signal of 1 Flourescent units.

Molecule B4 returned an FACS signal of 1 Flourescent units.

B5 yielded an FACS signal of 1 Flourescent units.

As to B6, the FACS signal worked out at 1 Flourescent units.

The target of a further assay is T5, dog red blood cells. Put plainly: FACS, dog RBC.
Take B7: the FACS signal was 0.96 relative flourescence units.

B8: the FACS signal is 1.05 relative flourescence units.

Take B9: the FACS signal was 1 relative flourescence units.

As to B10, the FACS signal is 1.04 relative flourescence units.

The target in the next assay is T4, Cynomolgus monkey glycophorin A on …. Description: FACS, Cyno #2 RBC.
Molecule B1 gave an FACS signal of 876 Flourescent units.

On to B2, for which the FACS signal was 956 Flourescent units.

Turning to B3, the FACS signal stood at 842 Flourescent units.

For the molecule B4, the FACS signal is 453 Flourescent units.

The molecule B5 yielded an FACS signal of 761 Flourescent units.

As for B6, the FACS signal turned out to be 981 Flourescent units.
